As a reminder, the Kd is the free concentration of one partner at which half of the binding sites on the other are occupied at equilibrium, for simple one-to-one binding. The low end stands for a tighter complex, the high end for a looser complex.

From patent publication US20230242635A1 (published 2023) come the findings set out here.

Test [1] addresses T1, canine FcRn complex (FcRn-α subunit and β-microglobulin), biotin labeled by BirA, captured on SA chip … (canine, UniProt A0A8I3PFR8 25-296, biotin label by BirA enzymatic biotinylation (BAP tag)). Nature of the test: SPR (Biacore), biotinylated FcRn captured on SA chip, IgG flowed, pH 7.4, 15 C.
Test [2] deals with T1, canine FcRn complex (FcRn-α subunit and …). Briefly: SPR (Biacore), biotinylated FcRn captured on SA chip, IgG flowed, pH 6, 15 C.
Test [3] has as its target canine FcRn complex (FcRn-α subunit and β-microglobulin), biotin labeled by BirA, captured on SA chip (Example 5) (canine). The description is as above.

T1 sequence (A0A8I3PFR8 entry or part of it, one chain of several): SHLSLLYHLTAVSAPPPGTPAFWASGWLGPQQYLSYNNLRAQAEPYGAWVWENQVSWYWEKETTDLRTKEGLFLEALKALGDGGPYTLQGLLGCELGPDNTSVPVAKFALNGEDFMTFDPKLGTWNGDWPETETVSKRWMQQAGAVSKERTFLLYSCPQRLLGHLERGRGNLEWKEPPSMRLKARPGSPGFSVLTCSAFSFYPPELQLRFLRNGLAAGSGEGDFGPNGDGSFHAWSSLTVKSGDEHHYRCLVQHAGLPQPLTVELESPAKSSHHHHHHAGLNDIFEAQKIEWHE

B1: caninized anti-IL31 antibody 34D03 (mAb1), canine IgGB, N434M (antibody)
chain 1: EVQLVESGGDLVKPGGSLRLSCVASGFTFSNYGMSWVRQAPGKGLQWVATISYGGSYTYYPDNIKGRFTISRDNAKNTLYLQMNSLRAEDTAMYYCVRGYGYDTMDYWGQGTLVTVSSASTTAPSVFPLAPSCGSTSGSTVALACLVSGYFPEPVTVSWNSGSLTSGVHTFPSVLQSSGLYSLSSMVTVPSSRWPSETFTCNVAHPASKTKVDKPVPKRENGRVPRPPDCPKCPAPEMLGGPSVFIFPPKPKDTLLIARTPEVTCVVVDLDPEDPEVQISWFVDGKQMQTAKTQPREEQFNGTYRVVSVLPIGHQDWLKGKQFTCKVNNKALPSPIERTISKARGQAHQPSVYVLPPSREELSKNTVSLTCLIKDFFPPDIDVEWQSNGQQEPESKYRTTPPQLDEDGSYFLYSKLSVDKSRWQRGDTFICAVMHEALHMHYTQESLSHSPGK
chain 2: EIVMTQSPASLSLSQEEKVTITCKASQSVSFAGTGLMHWYQQKPGQAPKLLIYRASNLEAGVPSRFSGSGSGTDFSFTISSLEPEDVAVYYCQQSREYPWTFGQGTKLEIK
For the molecule B1, the Kd in test [1] was 146000 nM; in test [2] it was 14.2 nM.

B2: caninized anti-IL31 antibody 34D03 (mAb1), canine IgGB, N434W (antibody)
chain 1: EVQLVESGGDLVKPGGSLRLSCVASGFTFSNYGMSWVRQAPGKGLQWVATISYGGSYTYYPDNIKGRFTISRDNAKNTLYLQMNSLRAEDTAMYYCVRGYGYDTMDYWGQGTLVTVSSASTTAPSVFPLAPSCGSTSGSTVALACLVSGYFPEPVTVSWNSGSLTSGVHTFPSVLQSSGLYSLSSMVTVPSSRWPSETFTCNVAHPASKTKVDKPVPKRENGRVPRPPDCPKCPAPEMLGGPSVFIFPPKPKDTLLIARTPEVTCVVVDLDPEDPEVQISWFVDGKQMQTAKTQPREEQFNGTYRVVSVLPIGHQDWLKGKQFTCKVNNKALPSPIERTISKARGQAHQPSVYVLPPSREELSKNTVSLTCLIKDFFPPDIDVEWQSNGQQEPESKYRTTPPQLDEDGSYFLYSKLSVDKSRWQRGDTFICAVMHEALHWHYTQESLSHSPGK
chain 2: EIVMTQSPASLSLSQEEKVTITCKASQSVSFAGTGLMHWYQQKPGQAPKLLIYRASNLEAGVPSRFSGSGSGTDFSFTISSLEPEDVAVYYCQQSREYPWTFGQGTKLEIK
Take B2: the Kd in test [1] turned out to be 25300 nM; in test [2], 1.98 nM.

B3: caninized anti-IL31 antibody 34D03 (mAb1), canine IgGB, N434S (antibody)
chain 1: EVQLVESGGDLVKPGGSLRLSCVASGFTFSNYGMSWVRQAPGKGLQWVATISYGGSYTYYPDNIKGRFTISRDNAKNTLYLQMNSLRAEDTAMYYCVRGYGYDTMDYWGQGTLVTVSSASTTAPSVFPLAPSCGSTSGSTVALACLVSGYFPEPVTVSWNSGSLTSGVHTFPSVLQSSGLYSLSSMVTVPSSRWPSETFTCNVAHPASKTKVDKPVPKRENGRVPRPPDCPKCPAPEMLGGPSVFIFPPKPKDTLLIARTPEVTCVVVDLDPEDPEVQISWFVDGKQMQTAKTQPREEQFNGTYRVVSVLPIGHQDWLKGKQFTCKVNNKALPSPIERTISKARGQAHQPSVYVLPPSREELSKNTVSLTCLIKDFFPPDIDVEWQSNGQQEPESKYRTTPPQLDEDGSYFLYSKLSVDKSRWQRGDTFICAVMHEALHSHYTQESLSHSPGK
chain 2: EIVMTQSPASLSLSQEEKVTITCKASQSVSFAGTGLMHWYQQKPGQAPKLLIYRASNLEAGVPSRFSGSGSGTDFSFTISSLEPEDVAVYYCQQSREYPWTFGQGTKLEIK
Take B3: the values for the Kd in test [1] and in test [2] were 6960 nM and 20.2 nM, respectively.

B4: caninized anti-IL31 antibody (mAb1), canine IgGB, N434Y (antibody)
chain 1: EVQLVESGGDLVKPGGSLRLSCVASGFTFSNYGMSWVRQAPGKGLQWVATISYGGSYTYYPDNIKGRFTISRDNAKNTLYLQMNSLRAEDTAMYYCVRGYGYDTMDYWGQGTLVTVSSASTTAPSVFPLAPSCGSTSGSTVALACLVSGYFPEPVTVSWNSGSLTSGVHTFPSVLQSSGLYSLSSMVTVPSSRWPSETFTCNVAHPASKTKVDKPVPKRENGRVPRPPDCPKCPAPEMLGGPSVFIFPPKPKDTLLIARTPEVTCVVVDLDPEDPEVQISWFVDGKQMQTAKTQPREEQFNGTYRVVSVLPIGHQDWLKGKQFTCKVNNKALPSPIERTISKARGQAHQPSVYVLPPSREELSKNTVSLTCLIKDFFPPDIDVEWQSNGQQEPESKYRTTPPQLDEDGSYFLYSKLSVDKSRWQRGDTFICAVMHEALHYHYTQESLSHSPGK
chain 2: EIVMTQSPASLSLSQEEKVTITCKASQSVSFAGTGLMHWYQQKPGQAPKLLIYRASNLEAGVPSRFSGSGSGTDFSFTISSLEPEDVAVYYCQQSREYPWTFGQGTKLEIK
As to B4, the figures for the Kd in test [1] and in test [2] were 1900 nM and 2.71 nM, respectively.

B5: caninized anti-IL31 antibody 34D03 (mAb1), canine IgGB, N434T (antibody)
chain 1: EVQLVESGGDLVKPGGSLRLSCVASGFTFSNYGMSWVRQAPGKGLQWVATISYGGSYTYYPDNIKGRFTISRDNAKNTLYLQMNSLRAEDTAMYYCVRGYGYDTMDYWGQGTLVTVSSASTTAPSVFPLAPSCGSTSGSTVALACLVSGYFPEPVTVSWNSGSLTSGVHTFPSVLQSSGLYSLSSMVTVPSSRWPSETFTCNVAHPASKTKVDKPVPKRENGRVPRPPDCPKCPAPEMLGGPSVFIFPPKPKDTLLIARTPEVTCVVVDLDPEDPEVQISWFVDGKQMQTAKTQPREEQFNGTYRVVSVLPIGHQDWLKGKQFTCKVNNKALPSPIERTISKARGQAHQPSVYVLPPSREELSKNTVSLTCLIKDFFPPDIDVEWQSNGQQEPESKYRTTPPQLDEDGSYFLYSKLSVDKSRWQRGDTFICAVMHEALHTHYTQESLSHSPGK
chain 2: EIVMTQSPASLSLSQEEKVTITCKASQSVSFAGTGLMHWYQQKPGQAPKLLIYRASNLEAGVPSRFSGSGSGTDFSFTISSLEPEDVAVYYCQQSREYPWTFGQGTKLEIK
For the molecule B5, the Kd came to 554 nM in test [1] and 34.2 nM in test [2].

B6: caninized anti-IL31 antibody 34D03 (mAb1), canine IgGB, N434R (antibody)
chain 1: EVQLVESGGDLVKPGGSLRLSCVASGFTFSNYGMSWVRQAPGKGLQWVATISYGGSYTYYPDNIKGRFTISRDNAKNTLYLQMNSLRAEDTAMYYCVRGYGYDTMDYWGQGTLVTVSSASTTAPSVFPLAPSCGSTSGSTVALACLVSGYFPEPVTVSWNSGSLTSGVHTFPSVLQSSGLYSLSSMVTVPSSRWPSETFTCNVAHPASKTKVDKPVPKRENGRVPRPPDCPKCPAPEMLGGPSVFIFPPKPKDTLLIARTPEVTCVVVDLDPEDPEVQISWFVDGKQMQTAKTQPREEQFNGTYRVVSVLPIGHQDWLKGKQFTCKVNNKALPSPIERTISKARGQAHQPSVYVLPPSREELSKNTVSLTCLIKDFFPPDIDVEWQSNGQQEPESKYRTTPPQLDEDGSYFLYSKLSVDKSRWQRGDTFICAVMHEALHRHYTQESLSHSPGK
chain 2: EIVMTQSPASLSLSQEEKVTITCKASQSVSFAGTGLMHWYQQKPGQAPKLLIYRASNLEAGVPSRFSGSGSGTDFSFTISSLEPEDVAVYYCQQSREYPWTFGQGTKLEIK
In the case of B6, the results for the Kd in test [1] and in test [2] were 3.11 nM and 0.906 nM, respectively.

B7: caninized anti-IL31 antibody 34D03 (mAb1), canine IgGB, N434Q (antibody)
chain 1: EVQLVESGGDLVKPGGSLRLSCVASGFTFSNYGMSWVRQAPGKGLQWVATISYGGSYTYYPDNIKGRFTISRDNAKNTLYLQMNSLRAEDTAMYYCVRGYGYDTMDYWGQGTLVTVSSASTTAPSVFPLAPSCGSTSGSTVALACLVSGYFPEPVTVSWNSGSLTSGVHTFPSVLQSSGLYSLSSMVTVPSSRWPSETFTCNVAHPASKTKVDKPVPKRENGRVPRPPDCPKCPAPEMLGGPSVFIFPPKPKDTLLIARTPEVTCVVVDLDPEDPEVQISWFVDGKQMQTAKTQPREEQFNGTYRVVSVLPIGHQDWLKGKQFTCKVNNKALPSPIERTISKARGQAHQPSVYVLPPSREELSKNTVSLTCLIKDFFPPDIDVEWQSNGQQEPESKYRTTPPQLDEDGSYFLYSKLSVDKSRWQRGDTFICAVMHEALHQHYTQESLSHSPGK
chain 2: EIVMTQSPASLSLSQEEKVTITCKASQSVSFAGTGLMHWYQQKPGQAPKLLIYRASNLEAGVPSRFSGSGSGTDFSFTISSLEPEDVAVYYCQQSREYPWTFGQGTKLEIK
For the molecule B7, the Kd is 21.8 nM in test [1] and 5.91 nM in test [2].

B8: caninized anti-IL31 antibody 34D03 (mAb1), canine IgGB, N434V (antibody)
chain 1: EVQLVESGGDLVKPGGSLRLSCVASGFTFSNYGMSWVRQAPGKGLQWVATISYGGSYTYYPDNIKGRFTISRDNAKNTLYLQMNSLRAEDTAMYYCVRGYGYDTMDYWGQGTLVTVSSASTTAPSVFPLAPSCGSTSGSTVALACLVSGYFPEPVTVSWNSGSLTSGVHTFPSVLQSSGLYSLSSMVTVPSSRWPSETFTCNVAHPASKTKVDKPVPKRENGRVPRPPDCPKCPAPEMLGGPSVFIFPPKPKDTLLIARTPEVTCVVVDLDPEDPEVQISWFVDGKQMQTAKTQPREEQFNGTYRVVSVLPIGHQDWLKGKQFTCKVNNKALPSPIERTISKARGQAHQPSVYVLPPSREELSKNTVSLTCLIKDFFPPDIDVEWQSNGQQEPESKYRTTPPQLDEDGSYFLYSKLSVDKSRWQRGDTFICAVMHEALHVHYTQESLSHSPGK
chain 2: EIVMTQSPASLSLSQEEKVTITCKASQSVSFAGTGLMHWYQQKPGQAPKLLIYRASNLEAGVPSRFSGSGSGTDFSFTISSLEPEDVAVYYCQQSREYPWTFGQGTKLEIK
Consider B8, for which the dissociation constant Kd in test [1] was found to be 2750 nM; in test [2], 6.16 nM.

B9: caninized anti-NGF antibody ZTS-841 (mAb2 of Table 4), canine IgGA, WT (antibody, from a related filing, part only)
heavy: EVQLVESGGDLVKPGGSLRLSCVASGFTFSSHGMHWVRQSPGKGLQWVAVINSGGSSTYYTDAVKGRFTISRDNAKNTVYLQMNSLRAEDTAMYYCAKESVGGWEQLVGPHFDYWGQGTLVIVSSASTTAPSVFPLAPSCGSTSGSTVALACLVSGYFPEPVTVSWNSGSLTSGVHTFPSVLQSSGLHSLSSMVTVPSSRWPSETFTCNVVHPASNTKVDKPVFNECRCTDTPPCPVPEPLGGPSVLIFPPKPKDILRITRTPEVTCVVLDLGREDPEVQISWFVDGKEVHTAKTQSREQQFNGTYRVVSVLPIEHQDWLTGKEFKCRVNHIDLPSPIERTISKARGRAHKPSVYVLPPSPKELSSSDTVSITCLIKDFYPPDIDVEWQSNGQQEPERKHRMTPPQLDEDGSYFLYSKLSVDKSRWQQGDPFTCAVMHETLQNHYTDLSLSHSPGK
VL: QSVLTQPTSVSGSLGQRVTISCSGSTNNIGILGASWYQLFPGKAPKLLVYGNGNRPSGVPDRFSGADSGDSVTLTITGLQAEDEADYYCQSFDTTLGAHVFGGGTHLTVL
For B9, in test [3], the Kd amounted to 95.5 nM.
